In the RNAGym collection of RNA variant scans (doi:10.1093/molbev/msab373) one finds reverse-splicing fitness data, which are given here for 83 variants.

B1: Azoarcus group I ribozyme (parent)
chain: GUGCCUUGCGCCGGGAAACCACGCAAGGGAUGGUGUCAAAUUCGGCGAAACCUAAGCGCCCGCCCGGGCGUAUGGCAACGCCGAGCCAAGCUUCGGCGCCUGCGCCGAUGAAGGUGUAGAGACUAGACGGCACCCACCUAAGGCAAACGCUAUGGUGAAGGCAUAGUCCAGGGAGUGGCGAAAGUCACACAAACCGG

Variants of B1 are the subject of the data set. In words: reverse-splicing fitness (ratio to wild type); higher = more active; in vitro selection; Mg2+ level not given. An outline of the steps:
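An in vitro group I ribozyme library with randomized positions was T7-transcribed and gel-purified. In triplicate, 10 pmol RNA in EPPS pH 7.5 was reacted with 50 pmoles of a 30-nt RNA substrate for 1 h at 37 °C across several added MgCl2 levels (1–48 mM), then stopped with EDTA. Products were reverse transcribed from a substrate-complementary primer, PCR-amplified and sequenced (HiSeq 4000). Fitness is a variant's read proportion after selection over that before, normalised to wild type.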
As for C82A A120U A145C C150G U176C, the reverse-splicing fitness worked out at 0.00832. For C82A A120U A145C C150G U176A, the reverse-splicing fitness stood at 0.00523. In the case of C82A A120U A145C C150G U176G it was 0.00275; in that of C82A A120U A145C C150G C169U U176G, 0.00175; in that of C82A A120U A145C C150G C169U U176C, 0.00254.

With C82A A120U A145C C150G C169U U176A, the reverse-splicing fitness was found to be 0.00283.

For the variant C82A A145C C169A, the reverse-splicing fitness came to 0.00701. For C82A A145C C169G, the reverse-splicing fitness is 0.0105. As to C82A A120U A145U C150A C169U U176G, the reverse-splicing fitness worked out at 0.00196. In the case of C82A A120U A145U C150A C169U U176A it was 0.00228; in that of C82A A120U A145U C150A C169U U176C, 0.0026; in that of C82A A120U A145C C150A C169G U176A, 0.00253.

For the variant C82A A120U A145C C150A C169G U176G, the reverse-splicing fitness stood at 0.00139. The value for C82A A120U A145C C150A C169G U176C was 0.00352. In the case of C82A A120U A145G C169G U176A it was 0.00295; in that of C82A A120U A145G C169G U176G, 0.00125. In the case of C82A A120U A145G C169G U176C it was 0.00373. Turning to C82A A120U C150G, the reverse-splicing fitness amounted to 0.0131. As to C82A A120U C150A, the reverse-splicing fitness amounted to 0.016.

Consider C82A A120U C150U, for which the reverse-splicing fitness is 0.0723. As to C82A A120U A145U C150U C169G, the reverse-splicing fitness came to 0.00375. In the case of C82A A120U A145U C150U C169A it was 0.00226; in that of C82A A120U A145U C150U C169U, 0.00442; in that of C82A A120G C150U U176A, 0.0125. Consider C82A A120G C150U U176G, for which the reverse-splicing fitness was found to be 0.00727.

With C82A A120G C150U U176C, the reverse-splicing fitness stood at 0.015. The value for C82A A145C C150A U176C was 0.0306; that for C82A A145C C150A U176G was 0.0123. In the case of C82A A145C C150A U176A, the reverse-splicing fitness was 0.0316.

As to C82A A120U A145G C150A C169G, the reverse-splicing fitness was 0.00494. For C82A A120U A145G C150A C169A, the reverse-splicing fitness turned out to be 0.00563.

In the case of C82A A120U A145G C150A C169U, the reverse-splicing fitness was determined as 0.00423.

Consider C82A A145C C150G C169A U176C, for which the reverse-splicing fitness worked out at 0.00619. As to C82A A145C C150G C169A U176G, the reverse-splicing fitness was 0.00669. Turning to C82A A145C C150G C169A U176A, the reverse-splicing fitness came out at 0.00836. As to C82A A120U C169U, the reverse-splicing fitness was found to be 0.00613. C82A A120U C169G: the reverse-splicing fitness was determined as 0.00529.

C82A A120U C169A: the reverse-splicing fitness worked out at 0.00277. Regarding C82A A145C C150G C169A, the reverse-splicing fitness stood at 0.00909.

In the case of C82A A145C C150G C169U, the reverse-splicing fitness stood at 0.00817. The value for C82A A145C C150G C169G was 0.00828; that for C82A A120U C150G C169G U176C was 0.00251. In the case of C82A A120U C150G C169G U176A it was 0.00506. The value for C82A A120U C150G C169G U176G was 0.00232. With C82A A145C C150A C169U U176C, the reverse-splicing fitness stood at 0.00759.

Regarding C82A A145C C150A C169U U176A, the reverse-splicing fitness was 0.015.

Consider C82A A145C C150A C169U U176G, for which the reverse-splicing fitness stood at 0.00553. For the variant C82A A145C C150U C169A, the reverse-splicing fitness was found to be 0.00801. Consider C82A A145C C150U C169U, for which the reverse-splicing fitness is 0.0111. For C82A A145C C150U C169G, the reverse-splicing fitness came to 0.00747. Regarding C82A A145C C150G C169G U176C, the reverse-splicing fitness turned out to be 0.0067.

On to C82A A145C C150G C169G U176G, for which the reverse-splicing fitness amounted to 0.00508.

Take C82A A145C C150G C169G U176A: the reverse-splicing fitness is 0.00895. Consider C82A A120U A145C C150U U176A, for which the reverse-splicing fitness was 0.00945. As to C82A A120U A145C C150U U176G, the reverse-splicing fitness turned out to be 0.00464.

In the case of C82A A120U A145C C150U U176C, the reverse-splicing fitness stood at 0.0147. Take C82A A120U A145C C150A C169U: the reverse-splicing fitness is 0.00225. In the case of C82A A120U A145C C150A C169G, the reverse-splicing fitness was found to be 0.00223. In the case of C82A A120U A145C C150A C169A it was 0.00256. The value for C82A A120U was 0.154. Regarding C82A A120U A145G U176G, the reverse-splicing fitness was found to be 0.0073.

For the variant C82A A120U A145G U176A, the reverse-splicing fitness was found to be 0.0348. In the case of C82A A120U A145G U176C it was 0.0599. The value for C82A A120U A145U C150A C169G U176C was 0.00266; that for C82A A120U A145U C150A C169G U176G was 0.00136. Consider C82A A120U A145U C150A C169G U176A, for which the reverse-splicing fitness was found to be 0.00237.

As to C82A A120U A145U C169G U176A, the reverse-splicing fitness turned out to be 0.00173. The value for C82A A120U A145U C169G U176G was 0.00116. The value for C82A A120U A145U C169G U176C was 0.00254. As for C82A A120U A145C C150A C169U U176A, the reverse-splicing fitness was determined as 0.00259. As to C82A A120U A145C C150A C169U U176G, the reverse-splicing fitness was found to be 0.00218.

Turning to C82A A120U A145C C150A C169U U176C, the reverse-splicing fitness amounted to 0.00188. Take C82A A120U A145U C150U U176C: the reverse-splicing fitness is 0.0364. Regarding C82A A120U A145U C150U U176A, the reverse-splicing fitness was determined as 0.0232.

Take C82A A120U A145U C150U U176G: the reverse-splicing fitness was 0.0066. In the case of C82A A120U A145U C150G it was 0.0166; in that of C82A A120U A145U C150A, 0.0126. In the case of C82A A120U A145U C150U it was 0.0889; in that of C82A A120G C169A U176G, 0.00374.

For C82A A120G C169A U176A, the reverse-splicing fitness was found to be 0.0187. In the case of C82A A120G C169A U176C it was 0.0236. Turning to C82A A120U A145G C150A C169U U176A, the reverse-splicing fitness came to 0.0044.

On to C82A A120U A145G C150A C169U U176C, for which the reverse-splicing fitness came out at 0.00385.
